Measured values reported in IntAct's records for PubMed 31515488.

Key:
hbaz_human HBZ = hbaz_human HBZ (UniProt P02008)
klhl2_human KLHL2 = klhl2_human KLHL2 (UniProt O95198)
Sequence of klhl2_human KLHL2 (O95198 whole entry): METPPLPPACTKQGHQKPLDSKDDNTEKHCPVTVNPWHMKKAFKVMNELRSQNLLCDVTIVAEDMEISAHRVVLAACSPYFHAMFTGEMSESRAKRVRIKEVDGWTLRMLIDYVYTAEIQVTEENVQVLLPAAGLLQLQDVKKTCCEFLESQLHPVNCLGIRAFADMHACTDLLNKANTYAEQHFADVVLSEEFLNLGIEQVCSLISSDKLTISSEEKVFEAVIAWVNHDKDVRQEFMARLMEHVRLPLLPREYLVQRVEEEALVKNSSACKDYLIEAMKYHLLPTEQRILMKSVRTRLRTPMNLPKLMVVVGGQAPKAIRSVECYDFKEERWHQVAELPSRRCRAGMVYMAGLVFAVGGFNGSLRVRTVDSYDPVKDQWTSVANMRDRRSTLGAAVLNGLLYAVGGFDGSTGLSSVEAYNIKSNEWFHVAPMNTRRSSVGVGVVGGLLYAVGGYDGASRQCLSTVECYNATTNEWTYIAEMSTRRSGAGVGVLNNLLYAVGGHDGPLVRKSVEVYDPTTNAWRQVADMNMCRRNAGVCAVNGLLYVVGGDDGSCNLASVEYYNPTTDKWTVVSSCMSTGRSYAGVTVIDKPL

Sequence of hbaz_human HBZ (P02008 whole entry): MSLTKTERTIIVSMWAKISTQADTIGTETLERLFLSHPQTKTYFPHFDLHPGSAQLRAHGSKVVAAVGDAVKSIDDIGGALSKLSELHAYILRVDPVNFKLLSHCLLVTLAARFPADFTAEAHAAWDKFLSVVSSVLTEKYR
Sequence of Hemoglobin subunit beta (Homo sapiens), P68871 E122V (P68871 whole entry E122V): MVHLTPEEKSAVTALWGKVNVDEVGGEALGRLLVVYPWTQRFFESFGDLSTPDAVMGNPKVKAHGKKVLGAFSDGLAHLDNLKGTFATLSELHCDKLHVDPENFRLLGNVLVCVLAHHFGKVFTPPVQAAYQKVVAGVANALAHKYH
Sequence of Hemoglobin subunit beta (Homo sapiens), P68871 F104L (P68871 whole entry F104L): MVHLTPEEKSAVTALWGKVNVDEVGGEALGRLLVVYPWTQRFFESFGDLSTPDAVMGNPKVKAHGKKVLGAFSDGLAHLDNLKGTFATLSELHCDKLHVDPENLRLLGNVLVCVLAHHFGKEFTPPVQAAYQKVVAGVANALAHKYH
Sequence of Zinc finger protein 114 (Homo sapiens), Q8NC26 E19G (Q8NC26 whole entry E19G): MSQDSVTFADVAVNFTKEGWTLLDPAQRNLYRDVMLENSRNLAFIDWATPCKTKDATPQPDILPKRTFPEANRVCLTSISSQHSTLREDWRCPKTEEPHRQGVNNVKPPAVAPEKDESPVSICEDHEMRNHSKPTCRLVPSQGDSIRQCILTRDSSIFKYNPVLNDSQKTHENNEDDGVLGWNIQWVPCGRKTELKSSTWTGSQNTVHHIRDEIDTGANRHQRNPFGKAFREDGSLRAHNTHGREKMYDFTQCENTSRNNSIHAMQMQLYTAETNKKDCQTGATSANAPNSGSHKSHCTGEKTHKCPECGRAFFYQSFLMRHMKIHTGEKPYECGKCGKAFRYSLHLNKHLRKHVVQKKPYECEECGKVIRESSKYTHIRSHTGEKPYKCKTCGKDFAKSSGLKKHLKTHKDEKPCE
Sequence of Hemoglobin subunit beta (Homo sapiens), P68871 G57D (P68871 whole entry G57D): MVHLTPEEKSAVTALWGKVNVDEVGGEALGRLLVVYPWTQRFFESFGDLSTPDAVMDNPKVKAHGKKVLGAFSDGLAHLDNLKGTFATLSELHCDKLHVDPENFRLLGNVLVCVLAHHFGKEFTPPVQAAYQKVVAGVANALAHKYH
Sequence of Hemoglobin subunit beta (Homo sapiens), P68871 L115P (P68871 whole entry L115P): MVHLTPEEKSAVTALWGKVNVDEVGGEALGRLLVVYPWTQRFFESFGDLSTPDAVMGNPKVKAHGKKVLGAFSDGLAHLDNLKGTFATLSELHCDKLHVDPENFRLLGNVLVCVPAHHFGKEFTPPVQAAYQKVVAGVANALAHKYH
Sequence of Hemoglobin subunit beta (Homo sapiens), P68871 E102Q (P68871 whole entry E102Q): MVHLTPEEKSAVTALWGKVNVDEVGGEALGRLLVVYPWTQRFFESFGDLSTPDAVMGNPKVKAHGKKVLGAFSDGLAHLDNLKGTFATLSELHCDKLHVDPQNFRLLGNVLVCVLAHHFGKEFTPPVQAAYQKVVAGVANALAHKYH
Sequence of Zinc finger protein 114 (Homo sapiens), Q8NC26 K404E (Q8NC26 whole entry K404E): as the sequence (Q8NC26 whole entry E19G) above, with G19E, K404E counted along it
Sequence of Hemoglobin subunit beta (Homo sapiens), P68871 N103Y (P68871 whole entry N103Y): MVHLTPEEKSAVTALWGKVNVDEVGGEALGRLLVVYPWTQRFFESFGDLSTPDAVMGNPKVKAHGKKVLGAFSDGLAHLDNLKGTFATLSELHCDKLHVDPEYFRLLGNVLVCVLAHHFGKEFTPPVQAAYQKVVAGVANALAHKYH
Sequence of Zinc finger protein 114 (Homo sapiens), Q8NC26 A229P (Q8NC26 whole entry A229P): as the sequence (Q8NC26 whole entry E19G) above, with G19E, A229P counted along it
Sequence of Hemoglobin subunit beta (Homo sapiens), P68871 T88P (P68871 whole entry T88P): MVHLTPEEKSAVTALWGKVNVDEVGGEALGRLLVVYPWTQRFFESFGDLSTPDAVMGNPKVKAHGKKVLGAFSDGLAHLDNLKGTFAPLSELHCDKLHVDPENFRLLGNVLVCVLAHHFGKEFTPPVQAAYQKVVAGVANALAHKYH
Sequence of Zinc finger protein 114 (Homo sapiens), Q8NC26 H99N (Q8NC26 whole entry H99N): as the sequence (Q8NC26 whole entry E19G) above, with G19E, H99N counted along it
Sequence of Hemoglobin subunit beta (Homo sapiens), P68871 F123S (P68871 whole entry F123S): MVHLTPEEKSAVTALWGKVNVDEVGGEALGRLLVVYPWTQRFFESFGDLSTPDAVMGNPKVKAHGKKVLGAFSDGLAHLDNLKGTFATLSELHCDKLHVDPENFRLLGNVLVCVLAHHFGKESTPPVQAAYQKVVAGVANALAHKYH
Sequence of Zinc finger protein 114 (Homo sapiens), Q8NC26 D61V (Q8NC26 whole entry D61V): as the sequence (Q8NC26 whole entry E19G) above, with G19E, D61V counted along it
Sequence of Hemoglobin subunit beta (Homo sapiens), P68871 E7V (P68871 whole entry E7V): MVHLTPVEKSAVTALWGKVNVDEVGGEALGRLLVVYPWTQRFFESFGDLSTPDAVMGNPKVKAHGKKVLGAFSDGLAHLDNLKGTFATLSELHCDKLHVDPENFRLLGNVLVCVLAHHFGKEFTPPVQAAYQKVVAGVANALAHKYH
Sequence of Hemoglobin subunit beta (Homo sapiens), P68871 V114E (P68871 whole entry V114E): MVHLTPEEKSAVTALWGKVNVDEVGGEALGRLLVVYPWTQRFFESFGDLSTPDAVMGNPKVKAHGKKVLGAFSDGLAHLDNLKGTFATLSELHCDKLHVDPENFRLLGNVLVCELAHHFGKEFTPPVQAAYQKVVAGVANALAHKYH
Sequence of Hemoglobin subunit beta (Homo sapiens), P68871 P101A (P68871 whole entry P101A): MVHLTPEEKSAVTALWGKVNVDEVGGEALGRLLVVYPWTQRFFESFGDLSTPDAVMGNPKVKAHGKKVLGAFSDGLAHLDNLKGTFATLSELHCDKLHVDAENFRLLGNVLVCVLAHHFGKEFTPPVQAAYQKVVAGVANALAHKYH
Sequence of Hemoglobin subunit beta (Homo sapiens), P68871 E7K (P68871 whole entry E7K): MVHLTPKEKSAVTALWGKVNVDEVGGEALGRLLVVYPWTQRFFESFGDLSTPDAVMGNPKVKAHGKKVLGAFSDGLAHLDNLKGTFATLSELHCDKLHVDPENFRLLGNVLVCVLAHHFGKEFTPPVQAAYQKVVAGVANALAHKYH
Sequence of Hemoglobin subunit beta (Homo sapiens), P68871 H118Y (P68871 whole entry H118Y): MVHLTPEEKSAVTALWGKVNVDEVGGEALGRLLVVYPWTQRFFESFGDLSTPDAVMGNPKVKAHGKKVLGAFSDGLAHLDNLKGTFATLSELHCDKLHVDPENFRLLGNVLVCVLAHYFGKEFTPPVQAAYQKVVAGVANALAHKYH

| Substance | effect of a mutation on the interaction (hbaz_human HBZ) | effect of a mutation on the interaction (klhl2_human KLHL2) |
| --- | --- | --- |
| Hemoglobin subunit beta (Homo sapiens), P68871 E122V | disrupting interaction strength |  |
| Zinc finger protein 114 (Homo sapiens), Q8NC26 H99N |  | with no effect |
| Hemoglobin subunit beta (Homo sapiens), P68871 T88P | disrupting interaction strength |  |
| Hemoglobin subunit beta (Homo sapiens), P68871 E102Q | disrupting interaction strength |  |
| Zinc finger protein 114 (Homo sapiens), Q8NC26 D61V |  | with no effect |
| Zinc finger protein 114 (Homo sapiens), Q8NC26 K404E |  | with no effect |
| Hemoglobin subunit beta (Homo sapiens), P68871 L115P | disrupting interaction strength |  |
| Hemoglobin subunit beta (Homo sapiens), P68871 V127G | disrupting interaction strength |  |
| Hemoglobin subunit beta (Homo sapiens), P68871 H118Y | disrupting interaction strength |  |
| Hemoglobin subunit beta (Homo sapiens), P68871 E7V | disrupting interaction strength |  |
| Hemoglobin subunit beta (Homo sapiens), P68871 P101A | disrupting interaction strength |  |
| Zinc finger protein 114 (Homo sapiens), Q8NC26 Q357P |  | with no effect |

The remaining lines, values ahead:

| effect of a mutation on the interaction (hbaz_human HBZ) | effect of a mutation on the interaction (klhl2_human KLHL2) | Substance |
| --- | --- | --- |
| disrupting interaction strength |  | Hemoglobin subunit beta (Homo sapiens), P68871 S10C |
| disrupting interaction strength |  | Hemoglobin subunit beta (Homo sapiens), P68871 F123S |
| with no effect |  | Hemoglobin subunit beta (Homo sapiens), P68871 G57D |
|  | with no effect | Zinc finger protein 114 (Homo sapiens), Q8NC26 A229P |
| disrupting interaction strength |  | Hemoglobin subunit beta (Homo sapiens), P68871 E7K |
| disrupting interaction strength |  | Hemoglobin subunit beta (Homo sapiens), P68871 V114E |
|  | with no effect | Zinc finger protein 114 (Homo sapiens), Q8NC26 E19G |
| disrupting interaction strength |  | Hemoglobin subunit beta (Homo sapiens), P68871 D100Y |
| disrupting interaction strength |  | Hemoglobin subunit beta (Homo sapiens), P68871 F104L |
| with no effect |  | Hemoglobin subunit beta (Homo sapiens), P68871 N103Y |
